Source: article PMC3776922

Molecular target: LAT-1(37-542)^GPS(T530A)::6xHis (C. elegans)
Assay: AUC; sedimentation equilibrium of the dimer fraction of the LAT-1 ectodomain; 20 uM - 60 uM protein, native conditions in PBS, 20°C / room temperature, 48 hr at 17,000 and 20,000 rpm, ideal monodisperse model

stoichiometry N: 2
Substance: LAT-1(37-542)^GPS(T530A)::6xHis (domain or fragment)
